Experimental data published in patent US20060281899A1, “Mutants of biotin binding protein” (priority 2002, published 2006).

Assays:
[1] = tested on: biotinylated alkaline phosphatase; test: Microtiter plate assay, biotin-binding activity after heat treatment at 99.9° C.; type: physicochemical; settings: 99.9° C. for various time periods
Procedure: Reversibility of biotin binding was measured for avidin and the mutants with an IAsys optical biosensor (Laitinen, O. H. et al., FEBS Lett 461 (1999), 52-8). Protein samples were allowed to bind to a biotin-aminosilane cuvette in PBS containing 1 M NaCl. After the equilibrium was reached, biotin-containing buffer was added and the dissociation of the proteins was monitored. The affinities of the proteins towards 2-iminobiotin were determined with an IAsys optical biosensor (Marttila, A. T. et al. FEBS Lett 441 (1998), 313-7). Biotin-binding activity of the mutants Avd-ci and Avd-ccci after heat treatment was studied with a microtiter plate assay. Protein samples, 5 μg/ml concentration in PBS, were heated for various time periods at 99.9° C. and then chilled on ice. The samples were transferred to a Nunc Maxisorp-plate and incubated at 37° C. for 2 h. The wells were washed three times with PBS-Tween (0.05% v/v). […] The absorbances at 405 nm were measured after incubation for 45 minutes.
Biotin-binding activity of the proteins after heat treatment was studied with a microtiter plate assay (Nordlund, H. R., Laitinen, O. H., Uotila, S. T., Nyholm, T., Hytönen, V. P., Slotte, J. P. & Kulomaa, M. S. (2003) J. Biol. Chem. 278, 2479-2483). […] The absorbencies at 405 nm were measured after incubation for 45 minutes.

[2] = IASyS reversibility of biotin binding of avidin and AVRs; settings: biotin cuvette, after addition of free biotin (0.17 mg/ml)
Procedure: The reversibility of biotin binding was studied as follows: Avidin and the AVRs were allowed to bind to a biotin-coated cuvette. After measuring the initial binding (A) as described above, biotin-saturated (0.17 mg/ml) buffer was injected into the cuvette and the amount of proteins remaining bound was measured until no dissociation was seen, again as compared to the negative control cuvette (B). The measurement time was at least 20 minutes. The percent reversibility was calculated as follows: reversibility (%)=100*(A−B)/A. A−B is the amount of liberated proteins after biotin adding.

[3] = Isoelectric focusing; type: physicochemical
Procedure: The heat stability of the AVRs was studied by using an SDS-PAGE-based method (Bayer, E. A., Ehrlich-Rogozinski, S. and Wilchek, M. (1996) Electrophoresis 17, 1319-1324). In this method, each protein sample was divided into two fractions one of which was kept biotin-free and the other was supplemented with an excess of biotin. The samples were then mixed with denaturing SDS-PAGE sample buffer (containing β-mercaptoethanol) and incubated at a given temperature for 20 minutes. After heat treatment, the samples were subjected to SDS-PAGE and visualised by staining with Coomassie brilliant blue. The relative proportions of tetrameric and monomeric forms of the AVR proteins (with avidin as the control) were detected. A similar assay, with β-mercaptoethanol omitted from the sample buffer, was performed to examine the presence of intersubunit disulfide-bridges. Sensitivity to proteinase K was studied both in the absence and in the presence of biotin as described (Laitinen, O. H., Airenne, K. J., Marttila, A. T., Kulik, T., Porkka, E., Bayer, E. A., Wilchek, M. and Kulomaa, M. S. (1999) FEBS Lett. 461, 52-8). The isoelectric point of each AVR was determined by isoelectric focusing as previously reported (Marttila, A. T., Airenne, K. J., Laitinen, O. H., Kulik, T., Bayer, E. A., Wilchek, M. and Kulomaa, M. S. (1998) FEBS Lett. 441, 313-317). The glycosylation patterns of the AVR proteins were studied by treating the proteins with Endo Hf and PNGase F glycosidase according to the manufacturer's instructions (New England Biolabs, Mass., USA).

[4] = IAsys reversibility of binding to biotin, AVR4/5 forms; settings: biotin cuvette
Procedure: The biotin-binding characteristics of the different avidins were studied using an IAsys optical biosensor at 20° C. […] H., Hytönen, V. P., Ahlroth, M. K., Pentikäinen, O. T., Gallagher, C., Nordlund, H. R., Ovod, V., Marttila, A. T., Porkka, E., Heino, S., Johnson, M. S., Airenne, K. J. & Kulomaa, M. S. (2002) Biochem. J. 363, 609-617).

B1: AVR4/5: Recombinant chicken avidin-related protein 4/5 (AVR4 and AVR5 identical in coding sequence) (protein, UniProt P56734 25-150, looked up)
Avidin-related protein 4/5: ARKCSLTGKWTNNLGSIMTIRAVNSRGEFTGTYLTAVADNPGNITLSPLLGIQHKRASQPTFGFTVHWNFSESTTVFTGQCFIDRNGKEVLKTMWLLRSSVNDISYDWKATRVGYNNFTRLCTVEE
Question: Which results are given for B1?
Answer: biotin-binding activity after heat treatment [1]: superior stability against boiling; Reversibility of biotin binding [2]: 2 ± 2%; pI by isoelectric focusing [3]: ≈ 10; Reversibility of binding to biotin [4]: 5 ± 3%
